{"source": "the nanobody polyreactivity screen of Harvey et al. (2022)"}
{"assay": "yeast display, Sf9 membrane polyspecificity reagent, FACS + sequencing; frameworks hold sequencing errors", "procedure,_shortened": "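Galactose induction of a Saccharomyces cerevisiae BJ5465 synthetic nanobody display library ran 36–48 hours. The cells were then stained for 1 hour at 4 °C with 10% biotinylated, detergent-solubilized Sf9 membrane reagent, pulled down on streptavidin microbeads and FACS-sorted into low and high (top ~1%) gates on expression and reagent-binding fluorescence. Labels for polyreactivity follow the gate of origin.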"}
{"sequence": "QVQLVESGGGLVQAGGSLRLSCAASGRTVYANAMGWYRQAPGKERELVAAISTGGDGTYYADSVKGRFTISRDNAKNPVYLQMNSQKPEDTAVYYCAVRHRASGMLYDYWGQGTQVTVSS", "polyreactivity (PSR sort gate)": "low polyreactivity"}
{"sequence": "QVQLVESGGGLVQAGGSLRLSCAASGRTYFDYTMGWYRQAPGKERELVAAINRSGVSTYYADSVKGRFTISRDNAKNTVYLQMNSLKPEDTAVYYCNADRGPPKLEYDPVIMDYWGQGTQVTVSS", "polyreactivity (PSR sort gate)": "low polyreactivity"}
{"sequence": "QVQLVESGGGLVQAGGSLRLSCAASGRTYGYAMGWYRQAPGKERELVARNTWRGGSTSYADSVKGRFTISRDNAKNTVYLQMNSLKPEDTAVYYCAATYGTGRRSKYGYWGQGTQVTVSS", "polyreactivity (PSR sort gate)": "high polyreactivity"}
{"sequence": "QVQLVESGGGLVQAGGSLRLSCAASGRTYHAYAMGWYRQAPGKGRELVAAITRTGTTHYADSVKGRFTISRDNAKNTVYLQMTSLKPEDTAVYYCAAQHVRVDAQFVLQGYDYWGQGTQVTVSS", "polyreactivity (PSR sort gate)": "low polyreactivity"}
{"sequence": "QVQLVESGGGLVQAGGSLRLSCAASGRTYIVNVMGWYRQAPGKERELVAAINWSTGRTYYADSVKGRFTISRDNAKNTVYLQMNSLKPEDTAVYYCAAEEFDSFWWGYYEMDYWGQGTQVTVSS", "polyreactivity (PSR sort gate)": "high polyreactivity"}
{"sequence": "QVQLVESGGGLVQAGGSLRLSCAASGRTYPYAMGLYRQAPGKEREFVAAITSSGGSTYYADSVKGRFTISRDNAKNTVYLQMNSLKPEDTAVYYCAAEYYFLEYDYWGQGTQVTVSS", "polyreactivity (PSR sort gate)": "low polyreactivity"}
{"sequence": "QVQLVESGGGLVQAGGSLRLSCAASGRTYQDNAMGWYRQEPGTERELVAAISFNSDSTYYADSVKGRFTISRDNAKNTVYLQMNSLKPEDTAVYYCAAQVVPTLYLRPLDYWGQGTQVTVSS", "polyreactivity (PSR sort gate)": "low polyreactivity"}
{"sequence": "QVQLVESGGGLVQAGGSLRLSCAASGRTYRAYTMGWYRQAPGKERELVAAISTPGGSTYYADSVKGRFTISRDNAKKTVYLQMIILKPEDNAVYYCAAGTFYYWLSYDYWGQGTKVTVSS", "polyreactivity (PSR sort gate)": "low polyreactivity"}
{"sequence": "QVQLVESGGGLVQAGGSLRLSCAASGRTYRVYAMGWYRQAPGKERELVASITRGGGTYADSVKGRFTISRDNAKNTVYLQMNSLKAEDTAVYYCNARWHRSTGGRQRYDYWGQGTQVTVSS", "polyreactivity (PSR sort gate)": "high polyreactivity"}
{"sequence": "QVQLVESGGGLVQAGGSLRLSCAASGRTYSIYAMGLYRQEPGNEREMVAAISNGGRTKYADSVKGRFTISRDNAKNTVYLQMNSLKPEDTAVYYCAASSYTNKRYPSPYDYWGQGTQVTVSS", "polyreactivity (PSR sort gate)": "high polyreactivity"}
{"sequence": "QVQLVESGGGLVQAGGSLRLSCAASGRTYVRNAMGWYRQAPGKERELVAGITRSGGSTYYADSVKGRFTISRDNAKNTVYLQMNSLKPEDTAVYYCAKRYDVYVGTVRPYDYWGQGTQVTVSS", "polyreactivity (PSR sort gate)": "low polyreactivity"}
{"sequence": "QVQLVESGGGLVQAGGSLRLSCAASGSARYAMGWYRQAPGKERELVAAISRRGGSTFYADSVKGRFTISRDNAKNTVYLQMNSLKPEDTAVYYCAADGRISYDYWGQGTQVTVSS", "polyreactivity (PSR sort gate)": "low polyreactivity"}
{"sequence": "QVQLVESGGGLVQAGGSLRLSCAASGSFFRNYAMGWYRQAPGKERELVAAISRRGTSTFYADSVKGRFTISRDNAMNTVYLQMNSLKPEDTAVYYCAARGSAGGDYGYWGQGTQVTVSS", "polyreactivity (PSR sort gate)": "high polyreactivity"}
{"sequence": "QVQLVESGGGLVQAGGSLRLSCAASGSIAGNAMGWYRQAPGKERELVATITRRGGRTYYADSVKGRFTISRDNAKNTVYLQMNSLKPEDTAVYYCNKVSYARGYDYWGQGTQVTVSS", "polyreactivity (PSR sort gate)": "high polyreactivity"}
{"sequence": "QVQLVESGGGLVQAGGSLRLSCAASGSICGKNGMGWYRQAPGKERELVAAITSGGGNTYYADSVKGRFTISRDNAKNTVYLQMNSLKPEDTAVDYCAKGYRAYYWGFNYWGQGTQVTVSS", "polyreactivity (PSR sort gate)": "high polyreactivity"}
{"sequence": "QVQLVESGGGLVQAGGSLRLSCAASGSICRQYTMGWYRQAPGKERELVAGINQSGDSTSADSVKGRFTISRDNAKNTVYLQMNSLKPEDTAVYYCNADPRVWYRNIYPGRNYDYWGQGTQVTVSS", "polyreactivity (PSR sort gate)": "low polyreactivity"}
{"sequence": "QVQLVESGGGLVQAGGSLRLSCAASGSICRYYDMGWYRQAPGKERELVAAISRSGGSTYYADSVKGRFTISRDNAKNTVYLQMNSLKPEDTAVYYCNVDQFRYREDDYWGQGTQVNVSS", "polyreactivity (PSR sort gate)": "high polyreactivity"}
{"sequence": "QVQLVESGGGLVQAGGSLRLSCAASGSIFAAYTMGWYRQAPGKERVFVAAITYTGGSTYYADSVKGRFTISRDNAKNTVYLQMNSLKPEDTAVYYCAARGRLCQGYYYWGQGTQVTVSS", "polyreactivity (PSR sort gate)": "low polyreactivity"}
{"sequence": "QVQLVESGGGLVQAGGSLRLSCAASGSIFAAYTMGWYRQAPGNERELVAAISVSTVSTYYADSVKGRFTISRDNAKNTVYLQMNSLKPEDTAVYYCNADATDSYPEKDEHESWGQGTQVTVSS", "polyreactivity (PSR sort gate)": "low polyreactivity"}
{"sequence": "QVQLVESGGGLVQAGGSLRLSCAASGSIFADNTMGWSRQAPGKERELVAAITSSGRTYYADSVTGRFTISRDNAKNTVYLQMKSLKPEDTAVYYCAAVIYFHDYSPYYYWGQGTQVTVSS", "polyreactivity (PSR sort gate)": "high polyreactivity"}
{"sequence": "QVQLVESGGGLVQAGGSLRLSCAASGSIFADYAMGWYRQAPGKERELVAAISYNGDSTYYADSVKGRFTISRDNAKTTVYLQMNSLKPEDTAVYNCAADGAYGGYDYWGQGTQVTVSS", "polyreactivity (PSR sort gate)": "low polyreactivity"}
{"sequence": "QVQLVESGGGLVQAGGSLRLSCAASGSIFADYTMGWYRQAPGKEREVVAAITSGGSTYYADSVKGRFTISRDNAKNTVYLQMNSLKPEDTAVYYCAAYYGGRGYWGQGTQVTVSS", "polyreactivity (PSR sort gate)": "low polyreactivity"}
{"sequence": "QVQLVESGGGLVQAGGSLRLSCAASGSIFAGNAMGWYRQAPGKERELVAAISWRGGSTYYADSVKGRFTISRDNAKNTVYLQMNSLKPEDTAVYYCAATWYDRRTFFYKYDYWGQGTQVTVSS", "polyreactivity (PSR sort gate)": "low polyreactivity"}
{"sequence": "QVQLVESGGGLVQAGGSLRLSCAASGSIFAGYAMGWYRQAPGKERELVAAISKSAGSTYYADSVKGRFTISRDNAKNTVYLQMNSLKPEDTAVYYCAARTFNTYPRYYYWGQGTQVTVSS", "polyreactivity (PSR sort gate)": "high polyreactivity"}
{"sequence": "QVQLVESGGGLVQAGGSLRLSCAASGSIFAGYAMGWYRQAPGKERELVAVISSTGSTYYADSVKGRFTISRDNAKNTVYLQMNSLKPEDTAVYYCAAGDVGYSYYRIYSRMDYWGQGTQVTVSS", "polyreactivity (PSR sort gate)": "low polyreactivity"}
{"sequence": "QVQLVESGGGLVQAGGSLRLSCAASGSIFAGYTMGWSRQAPGKERELVAVISTGGRTKYADSVKGRFTISRDNAKNTVYLQMNSLKPEDTAVYYCAADSRGWSLDGDYWGQGTQVTVSS", "polyreactivity (PSR sort gate)": "low polyreactivity"}
{"sequence": "QVQLVESGGGLVQAGGSLRLSCAASGSIFAGYTMGWYRQAPGKERELVATITRSGTSTFYADSVKGRFTISRDNAKNTVYLQMNSLKPEDTAVYYCAADVTARYDYWGQGTQVTVSS", "polyreactivity (PSR sort gate)": "high polyreactivity"}
{"sequence": "QVQLVESGGGLVQAGGSLRLSCAASGSIFAIYVMGWYRQAPGKERELVAAISYRSGSTYYADSVKGRFTISRDNAKNTVYLQMNSLKPEDTAVYYCAATSRYYTFGYWGQGTQVTVSS", "polyreactivity (PSR sort gate)": "low polyreactivity"}
{"sequence": "QVQLVESGGGLVQAGGSLRLSCAASGSIFAKYAMGWYRQAPGKERELVAAITSGGSTNYADSVKGRFTISRDNAKITVYLQINSLKPEDTAVYYCNATGLYYDFYKLDYWGQGTQVTVSS", "polyreactivity (PSR sort gate)": "low polyreactivity"}
{"sequence": "QVQLVESGGGLVQAGGSLRLSCAASGSIFAKYAMGWYRQAPGKERELVAAITSGGSTNYADSVKGRFTISRDNAKNTVYLQMTSLKPEDTAVYYCAARNHYRGYYWGQGTHVTVSS", "polyreactivity (PSR sort gate)": "low polyreactivity"}
{"sequence": "QVQLVESGGGLVQAGGSLRLSCAASGSIFAKYAMGWYRQAPGKERELVAAITYSSSSTYYADSVKGRFTISRDNAKNTVYLQMNSLKPEDTAVYYCAARKKARGHGGNDYWGQGTLVTVSS", "polyreactivity (PSR sort gate)": "high polyreactivity"}
{"sequence": "QVQLVESGGGLVQAGGSLRLSCAASGSIFAKYAMGWYRQAPGKERELVASITYSGGGTYYADSVKGRFTISLDNAKNTVYLQMNSLKPEDTAFYYCNAVKRVYIWASFRYVFWYDSWGQATQVTVSS", "polyreactivity (PSR sort gate)": "high polyreactivity"}
{"sequence": "QVQLVESGGGLVQAGGSLRLSCAASGSIFAKYAMGWYRQAPGKERELVAVITSRGGTYYADSVKGRFTISRDNAKKTVYLQMNSLKPEDTAVYYCAARGGGQPVAYDYWGQGTQVTVSS", "polyreactivity (PSR sort gate)": "high polyreactivity"}
{"sequence": "QVQLVESGGGLVQAGGSLRLSCAASGSIFAKYAMGWYRQAPGKESEFVAAIRASGGRTYYADSVKGRFTISRDNAKNTVYLQMNSLKPEDTAVYYCAAHLYSSRSDYDGPRSRRNYWGQGTQVTVSS", "polyreactivity (PSR sort gate)": "high polyreactivity"}
{"sequence": "QVQLVESGGGLVQAGGSLRLSCAASGSIFAKYTMGWYRQAPGKERELVAAITRSGTSTRYADSVKGRFTISRDNAKNTVYLQMNSLKPEDTAVYYCAASLYSWGQGTQVTVSS", "polyreactivity (PSR sort gate)": "high polyreactivity"}
{"sequence": "QVQLVESGGGLVQAGGSLRLSCAASGSIFANNVMGWYRQAPGKEREFVAAISWSGGRTYYADSVTGRFTISRDNAKNTVYLQMNSLKPEDTAVYYCARRPRAWGQGTQVTVSS", "polyreactivity (PSR sort gate)": "high polyreactivity"}
{"sequence": "QVQLVESGGGLVQAGGSLRLSCAASGSIFAPYAMGWYRQAPGKERELVAAINNNGGRTYYADSVKGRFTISRDNAKNTVYLQMNSLKPEDTAVYYCAADIYPDWIYLLYGYWGQGTQVTVSS", "polyreactivity (PSR sort gate)": "low polyreactivity"}
{"sequence": "QVQLVESGGGLVQAGGSLRLSCAASGSIFARNAMGWYRQAPGKERELVAAISRSGGITYYADSVKGRFTISRDNAKNTVYLQMNSLKPEDTAVYYCATVGYYKGNQVLPAKDGDSWGQGTQVTVSS", "polyreactivity (PSR sort gate)": "high polyreactivity"}
{"sequence": "QVQLVESGGGLVQAGGSLRLSCAASGSIFARNAMGWYRQAPGKERELVASITWSGASTYYADSVKGRFTISRDNAKNTVYVQMNSLKPEDTAVYYCAATDQKLSLDYSSYEYWGQGTQVTVSS", "polyreactivity (PSR sort gate)": "low polyreactivity"}
{"sequence": "QVQLVESGGGLVQAGGSLRLSCAASGSIFARNAMGWYRQAPGKERELVAVITTGGRTYYADSVKGRFTISRDNAKNTVYLQMNSLKPEDTAVYYCATRVIYGQSGGYWGQGTQVTVSS", "polyreactivity (PSR sort gate)": "high polyreactivity"}
{"sequence": "QVQLVESGGGLVQAGGSLRLSCAASGSIFARYAMGWYRQAPGKERELVAAISGSGASTYYADSVKGRFTISRDNAKNTVFLQMNSLKPEDTAVYYCARPFLRRPTYRFESGYGYWGQGTQVTVSS", "polyreactivity (PSR sort gate)": "high polyreactivity"}
